Test results published in the supplement of paper PMC12042874.
± gives the uncertainty stated by the source.

Experiment: amyloid nucleation score (Sup35N fusion, yeast selection) (log enrichment); library NNK1; higher = more nucleation; inactive = no reads after selection
Outline: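 The nucleation score, computed with DiMSum, is the log enrichment of output over input reads, centred on the mode score of non-aggregating sequences. Sequences with under 100 input reads were dropped. Reads were generated by Illumina sequencing of plasmid inserts from psi-negative yeast with Sup35N fused to peptides of 20 random codons, induced with 100 μM copper sulfate for 24 hours and grown 7 days at 30°C on medium lacking adenine and uracil.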

Row | Substance | amyloid nucleation score
1 | YFSTRKYTSKGYCVRTLFAY | -0.406 ± 0.27
2 | YFTNPRCRLDAHGGFANQWW | -0.977 ± 1.4
3 | YFVFFLRDLFWRRKI | 0.408 ± 0.41
4 | YFVLKCSC | 2.05 ± 0.49
5 | YFWASHISSVYLNLETCDTM | -0.417 ± 0.42
6 | YFYDTWGA | -0.235 ± 0.47
7 | YFYFLVNISFISIKGCLFMP | 0.121 ± 0.4
8 | YFYTSHFSLLTSTQFIYRLG | 0.392 ± 0.33
9 | YGDGMGPWCYCWAFAEPRRS | 0.114 ± 1.1
10 | YGFSNYRMIVQLYNLFSMYD | 3.04 ± 0.21
11 | YGGLEVSLGALQNVGVKPYT | -0.189 ± 1.1
12 | YGHLDPFTKLWSLWGIIMNW | inactive
13 | YGHLTAGGCWSGQTNNARLG | -0.488 ± 0.9
14 | YGISVMIYDRPAISACQIKH | 2.71 ± 0.11
15 | YGLPLWCNMCSRSANRC | 0.365 ± 0.48
16 | YGRATIWNYKSSMDGPKNGK | inactive
17 | YGRSP | 0.597 ± 0.46
18 | YGTNRSWGDMEKISSHKRCW | -0.321 ± 0.34
19 | YHCLWGFVGVLKSDSLRDRR | 0.602 ± 0.38
20 | YHDVGSAVRMLYQMGPKRVF | -0.442 ± 1.4
21 | YHILGCKIVNVIDTALGPWL | 5.8 ± 0.06
22 | YHIMGFSSYGGVVRWMSS | -0.312 ± 0.36

Row | Substance | amyloid nucleation score
23 | YHNFNSV | 0.164 ± 0.34
24 | YHSWECLHRTANIIWEYFRD | -0.019 ± 0.81
25 | YIDEIY | -0.759 ± 0.35
26 | YIDVFVSRVLHSGFERSDVV | 0.745 ± 0.2
27 | YIHDQIIALFKQDLFSGSLH | 0.961 ± 0.69
28 | YIKAGLFGCYMVAGGAYNPV | 1.58 ± 0.31
29 | YILACAKVTEDPVSVSMKCA | -0.278 ± 0.74
30 | YILKGNYLYRRVQLDLRTRR | -0.244 ± 0.28
31 | YILSSLPFRHLLGVNICFTA | -0.364 ± 0.31
32 | YIMFDVLLTDKRPSSSVCSC | 3.41 ± 0.069
33 | YIQLVI | -0.279 ± 0.32
34 | YIVPQLT | 1.47 ± 0.81
35 | YIWAFLVGFVLTHYCSPHPD | -1.07 ± 0.68
36 | YIYNWRYN | 1.71 ± 0.54
37 | YKANCVETLSWSFGHNFFLR | -0.481 ± 0.49
38 | YKASG | 0.794 ± 1.1
39 | YKCVYFGMETAVGNTAQERP | 0.861 ± 0.77
40 | YKHWLYKLSCLEARSEYCGF | 0.444 ± 1.1
41 | YKSNKWSPSQKRKG | -1.37 ± 2.7
42 | YKSSILPTEFGFACKPWGHL | 0.3 ± 0.55
43 | YKSVRSVVWWCLRNSLHFVW | 1.91 ± 0.6
44 | YKVNNFKTFSLWNMFLDSNC | 4.47 ± 0.064

Row | Substance | amyloid nucleation score
45 | YLAKISSHDPGIAMMEMTGR | 0.315 ± 0.35
46 | YLAQL | 0.558 ± 0.43
47 | YLAWNM | 1.8 ± 0.34
48 | YLCPVRDFNGLYGLVFM | -0.756 ± 1.7
49 | YLFGGSWDCGLYISGIPCWS | 1 ± 0.48
50 | YLFTYRRVTWGSTLQS | 1.65 ± 0.48
51 | YLIDSSTPDFR | 0.314 ± 0.3
52 | YLLPEPKQCVSPE | 0.625 ± 0.5
53 | YLLTHQRKTSLQE | 1.06 ± 0.97
54 | YLPVYNY | 0.487 ± 0.65
55 | YLQEWRIGRVGCVGFTCRCR | 0.279 ± 0.45
56 | YLRFTV | 2.57 ± 0.27
57 | YLRKIRVLNMGAAAEKALLG | 0.641 ± 0.68
58 | YLRLKKMSVGVWGVIDRCLV | 0.995 ± 0.51
59 | YLRPGCSSVRSNATMGNSYL | 0.641 ± 0.45
60 | YLWLYVLSRTWVFNKHPSPI | -0.543 ± 0.41
61 | YMCHKRAFV | 3.32 ± 0.12
62 | YMDVTGDVK | -0.067 ± 0.85
63 | YMGHDC | 0.011 ± 0.21
64 | YMNIVDVLAWGDRWVLLVWK | 0.425 ± 0.48
